The values that follow come from publication PMC11530598 (2024).

This assay has as its target T1, MAP1B LC-mScarlet (Mus musculus (Mouse), UniProt P14873).
T1 chain: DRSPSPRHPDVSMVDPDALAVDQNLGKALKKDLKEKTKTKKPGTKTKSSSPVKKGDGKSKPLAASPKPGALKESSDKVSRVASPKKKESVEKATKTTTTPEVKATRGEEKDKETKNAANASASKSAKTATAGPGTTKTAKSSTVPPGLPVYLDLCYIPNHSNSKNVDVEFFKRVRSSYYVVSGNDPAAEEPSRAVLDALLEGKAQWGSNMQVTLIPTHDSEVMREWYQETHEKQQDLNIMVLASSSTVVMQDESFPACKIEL
In words: TIRF microscopy recruitment assay on microtubules; tested on taxol-stabilised microtubules.

B1: sfGFP-MAP1B HC^1-532 (protein)
chain: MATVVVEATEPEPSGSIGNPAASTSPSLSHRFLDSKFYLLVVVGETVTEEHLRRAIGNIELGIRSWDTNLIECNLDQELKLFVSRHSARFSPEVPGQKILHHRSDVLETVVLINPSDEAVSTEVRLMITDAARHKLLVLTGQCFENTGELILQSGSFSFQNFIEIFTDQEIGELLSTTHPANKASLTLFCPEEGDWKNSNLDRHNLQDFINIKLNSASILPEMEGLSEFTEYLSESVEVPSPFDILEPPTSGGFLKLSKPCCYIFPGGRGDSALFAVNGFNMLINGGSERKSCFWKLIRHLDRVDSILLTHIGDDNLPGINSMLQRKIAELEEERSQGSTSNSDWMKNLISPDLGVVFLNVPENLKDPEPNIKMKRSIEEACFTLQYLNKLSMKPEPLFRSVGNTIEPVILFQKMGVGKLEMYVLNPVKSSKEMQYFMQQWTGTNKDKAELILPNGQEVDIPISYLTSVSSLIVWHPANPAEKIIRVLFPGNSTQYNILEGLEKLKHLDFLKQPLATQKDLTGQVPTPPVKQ
Regarding B1, the binding result is reported as “no binding”.
